From the supplement of paper PMC9170038

System: MS2 coat protein
Test: apparent KD of MS2 coat protein; designed switch direction (-1 OFF switch, 1 ON switch): -1; higher = weaker reporter binding
How it was run: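 Designed RNA switches were transcribed on Illumina chips by stalled E. coli RNA polymerase and titrated with SNAP-549-labelled MS2 coat protein from 0.7 or 1.5 nM, doubling to 3 µM. Step length ran from 0.8–1.5 h at the lowest concentration to 10–20 min at the highest. The apparent KD is the median over clusters for each design, from curve-fitted normalised cluster fluorescence.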

[1] = Eterna round: R95, input ligand: FMN 200 uM
[2] = Eterna round: R95, input ligand: microRNA oligo, concentration not stated
[3] = Eterna round: R95, input ligand: none
[4] = input ligand: microRNA oligo, concentration not stated

Sequence | apparent KD of MS2 coat protein [1] [µM] | apparent KD of MS2 coat protein [2] [µM] | apparent KD of MS2 coat protein [3] [µM] | apparent KD of MS2 coat protein (input ligand: FMN 200 uM) [µM] | apparent KD of MS2 coat protein [4] [µM] | apparent KD of MS2 coat protein (input ligand: none) [µM]
AUCAUGUAAGGAUAUCUUACAUGGAUCGAAAGAUCAAGUUAAGAGAAGGUACAUGAGGAUCACCCAUGUAUAAC [Ex4-3: 34] (puzzle: Exclusion 4) | 0.021 | 0.0223 | 0.0208 | – | – | –
GGUAACAUGAGGAUCACCCAUGUGAUACGUUACAUAUAAACCGAGGAUAUACCCUCAGAACGAGGGUAGAAGGUGGGACGACAC [Eternabot solution 8] (Eterna round: R96, puzzle: Exclusion NG 3) | – | – | – | 0.0958 | 0.0516 | 0.102
GGAUCACAUGUGAGGAUAUGCAGGUCCUUGGAUCUGCAGAAGGCACAUGAGGAUCACCCAUGUGAUCAAGAUCC [Mat - Exclusion 4 - Eli Mod - D49] (Eterna round: R97, puzzle: Brourd's mod of Exclusion 4) | – | – | – | 0.0474 | – | 0.0612
UGAUGACAUGAGGAUCACCCAUGUCAGGAUAUGCUUCGGCUUCGGAAAUGAAGUUGAAGUAGAAGGGACUGUCG [-27.1, -24.1 kcal, A 28% sequence 3 bis] (Eterna round: R97, puzzle: Exclusion 1) | – | – | – | 0.0377 | – | 0.0278
AGAUGUAGAUACCGAUCCUACAUGAGGAUCACCCAUGUAGCUAGACGUGCGGGCGGCGCUCGUCGGACUACCAGUAG [salish99_TOv1_r3_095] (puzzle: Sensor v3, turn-off variant 1) | 0.163 | 0.155 | 0.232 | – | – | –
CUUUUGUGAGGAUAUCAGUAGUAAAUUAAUAAAAUUACUACUGAGAAGGCACAUGAGGAUCACCCAUGUUCCUU [Mat - Exclusion 4 - Mod of Salish - D64] (puzzle: Exclusion 4) | – | 0.0149 | – | – | – | –
CUCGUGCAGCAAAGCUGUACGAGUACAUGAGGAUCACCCAUGUAGGAUAUGGUACGCAAAGCGUGCUAGAAGGAUAUGUGAAGG [Mat - Exclusion NG 3 - Mod of JL - D88] (Eterna round: R96, puzzle: Exclusion NG 3) | – | – | – | 0.0494 | 0.0362 | 0.0515
GUCUAGAGAGGAUAUAUUUACAGUGUACGUCGGAUGAUCGCACUUGAGGAUCACCCAAGUAGAAGGCUCGAGGG [EX2 #31] (Eterna round: R97, puzzle: Exclusion 2) | – | – | – | 0.875 | – | 1.85
AUUUAACAUGAGGAUCACCCAUGUGAGGAUAUGCGAGUGUAGACUUCGGUCUGAUAGAGCAGAAGGCGCAGAUA [EX1 #9] (Eterna round: R97, puzzle: Exclusion 1) | – | – | – | 0.0486 | – | 0.045
GAGCAGCGAGGAUAUACAGACGGGUCCAGUACGUGUCUUGGACUUGAGGAUCACCCAAGUAGAAGGCGCCACAG [salish99_ex2_r4_605] (Eterna round: R97, puzzle: Exclusion 2) | – | – | – | 0.0426 | – | 0.0258
UUGAGCAGACGGAGAUCCAACAUGAGGAUCACCCAUGUCUCAAAAGCUUUUUGCUCAUCUUAUCGUACCUUGGUGCU [Mat - Sensor v3 - turn-off var 1 - JL Mod - D15] (puzzle: Sensor v3, turn-off variant 1) | 0.155 | 0.00975 | 0.302 | – | – | –
AACAAGCUUUUAAGAUCCUACAUGAGGAUCACCCAUGUGCUCGUCUUGUAACGUACUGUGACGAAAGUCACGGUACG [JL TOV1 3.29] (Eterna round: R97, puzzle: Sensor, turn-off variant 1) | – | – | – | 0.233 | – | 0.182
AUCCAGCUAGGAUAUGCAGAGGCGAUCGCGGGCAUGUCCCAACAUGAGGAUCACCCAUGUAGAAGGAGCCAAGG [Eternabot (Original) Solution 48] (Eterna round: R97, puzzle: Exclusion 2) | – | – | – | 0.0761 | – | 0.0332
AUAAGUGAUAAGGAUAUCACUAGCUUCGGCUAGUGAGAAGGUAUCACAUGAGGAUCACCCAUGUGUUCCAAUAA [Ex6/7-A1] (Eterna round: R97, puzzle: Exclusion 6) | – | – | – | 0.603 | – | 0.213
AUUCCCACCCGAGGAUAUGCUUUAUUGCCGGGUGGUCAACAUGAGGAUCACCCAUGUAACUAAACGCAGAAGGCGGACAAUAAG [Ediner] (Eterna round: R96, puzzle: Exclusion NG 2) | – | – | – | 0.0335 | 0.116 | 0.0338
ACUUUUUGAGGAUAUACAUUUAUCCACAUGAGGAUCACCCAUGUACAAACAUGUAUUUGUGUAGAAGGCAGAAGAA [JR_Ex5_Sub069] (Eterna round: R97, puzzle: Exclusion 5) | – | – | – | 0.0545 | – | 0.0607
UGCCUAUGAGGAUAUACGUAGAAAUAGAUUCAUGUAAAACUACAUGAGGAUCACCCAUGUAGAAGGCAUGGGCU [Mat - Exclusion 2 - JL Mod - D49] (Eterna round: R97, puzzle: Exclusion 2) | – | – | – | 0.0275 | – | 0.016
CCGUGUUUAGGAUAUGCUAUGGAAGUGUUAAUAUUCAUUAGACAUGAGGAUCACCCAUGUAGAAGGAGGCCGCG [Eternabot (L1) Solution 96] (Eterna round: R97, puzzle: Exclusion 2) | – | – | – | 0.34 | – | 0.142
CACAAUGACGUCAGGAUAUGUAAACAGCGAAGUUUGUAGAAGGGACAUGAGGAUCACCCAUGUAUAACUGGGAG [Eternabot (L2) Solution 27] (Eterna round: R97, puzzle: Brourd's mod of Exclusion 4) | – | – | – | 0.22 | – | 0.149
UUAUUACAAGCAAGAUCCUACAUGAGGAUCACCCAUGUGCUCGUCUUAUAAGGUACAGUGACGAAAGUCACAGUACC [Sensor 3, v1 - 00] (puzzle: Sensor v3, turn-off variant 1) | 0.205 | 0.138 | 0.221 | – | – | –
GUAGCUUCGGCUACUACAAGCUUUUUGCUCGUCUUAUUAACAUGAGGAUCACCCAUGUACAAGAGACCUCAUGUAUU [Sensor v3 - turn-off variant 2 - 13] (puzzle: Sensor v3, turn-off variant 2) | 0.0904 | 0.0156 | 0.146 | – | – | –
AAACGCCGAGGAUAUACCCAACCAGUCCUCUAAAGAAGAAAACAUGAGGAUCACCCAUGUAGAAGGCGGUGCAA [Anorti] (Eterna round: R97, puzzle: Exclusion 2) | – | – | – | 0.0518 | – | 0.0281
GGGAAACAUGAGGAUCACCCAUGUCAGGAUAUCCGCUUUAAUUAAAUAAAUAAAUAAUGGAGAAGGGACAGCCC [-12.9, -10.5 kcal, 39% A] (Eterna round: R97, puzzle: Exclusion 1) | – | – | – | 0.0336 | – | 0.0337
GGUCGACAUGAGGAUCACCCAUGUUAGGAUAUUAGCCAAUGGUCUCGUUAUGAGUCAUUAAGAAGGAACAUGCU [Eternabot (L1) Solution 37] (Eterna round: R97, puzzle: Exclusion 1) | – | – | – | 0.018 | – | 0.0149
GGUUGUCGAGGAUAUACUAGGGACCGAUCGAUCGGAACUUCACAUGAGGAUCACCCAUGUAGAAGGCGACAAUC [Eternabot (L1) Solution 57] (Eterna round: R97, puzzle: Exclusion 2) | – | – | – | 0.116 | – | 0.174
CCCACAAGCUUUUUGCUCGACAUGAGGAUCACCCAUGUAAAAUGGGUAAAUUUAAAUUGAAACAAUUUAAAUUUGGG [-20.1, -44.2 kcal, A 35%] (Eterna round: R97, puzzle: Sensor, turn-off variant 1) | – | – | – | 0.262 | – | 0.222
AAAUAACAAGCAAGAUCCUACAUGAGGAUCACCCAUGUGCUCGUCUUAUAAAGUACUAUCACGAAAGUGAUAGUACA [Sensor 3, v1 - 11] (puzzle: Sensor v3, turn-off variant 1) | 0.675 | 0.392 | 0.546 | – | – | –
CUGAGUUUAGGAUAUACAUGAGGAUCACCCAUGUAAAGUAGCUUGCGUACAGGCAGAUGUAGAAGGAAAUUCGG [Mod of JL 7 - Jieux - Exclusion 3] (Eterna round: R97, puzzle: Exclusion 3) | – | – | – | 0.0315 | – | 0.0418
UGCUACGGAGGAUAUACAUGAGGAUCACCCAUGUGAGAGAUUUAGCCGAGAGGCUAGUGUAGAAGGCCGUAGCU [jl-ex3-4.17 jl mod] (Eterna round: R97, puzzle: Exclusion 3) | – | – | – | 0.4 | – | 0.0628
CAGGGCGCAGGAUAUAUCACAAUGCACAUGAGGAUCACCCAUGUCAUCCUCGCGCUUGAGAUAGAAGGGUGAAACC [Eternabot (L1) Solution 65] (Eterna round: R97, puzzle: Exclusion 5) | – | – | – | 0.0211 | – | 0.0237
